From patent publication US6011020
pKd: −log10 of the molar value. Read-outs that look alike come from different tables or passages of the source.

Target: bFGF (basic fibroblast growth factor) (UniProt P09038)
Sequence (P09038 143-288): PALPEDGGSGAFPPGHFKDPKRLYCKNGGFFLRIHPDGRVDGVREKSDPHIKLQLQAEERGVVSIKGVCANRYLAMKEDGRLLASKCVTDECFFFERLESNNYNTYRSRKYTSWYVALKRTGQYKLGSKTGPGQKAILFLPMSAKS

## GGGCTTTGTAAAACCCCGC [225T3N-PEG-3400]
3'-amino-modifier C7 conjugated to PEG 3400 [3' end after position 19: NN = non-nucleotide 3'-amino-modifier C7 and PEG 3400, left out], binding assay with 5'-32P-labeled conjugate, assay type not stated
  pKd: 9.00

## GGGCTTTGTAAAACCCCGC [225T3]
Reference ligand, same affinity as PEG and cholesterol conjugates, binding assay type not stated
  pKd: 9.00

## GGGCTTTGTAAAACCCCGC [225t3-Chol]
3'-tetraethyleneglycol cholesterol, binding assay with 5'-32P-labeled conjugate, assay type not stated
  pKd: 9.00
